Data as given in patent CN117264062A (SHANGHAI HRAIN BIOTECHNOLOGY CO LTD, dated 2023).

B1: L2C8 anti-human Trop2 scFv (scFv, V domains shown)
VH: EVQLVESGGALVQRGGSLRLSCSASGFSVRNNYITWVRQAPGKGLEWVAIVFPGGSSYHADSVKGRFTISRDLSKNSVYLEMNSLREDDTGVYFCARDSGSPLWRGHFQYWGQGTTVTVSS
VL: QSVLTQPPSVSGAPGQRVTISCTGSSANIGAGYDVHWYQQLPGTAPKLLIYDNNKRPSGIPDRFSGSNSGTSATLGITGLQTGDEADYYCGTWDTSLSAWVFGGGTRLTVL
notes: Tested as an scFv in a periplasmic extract of TG1 (pComb3sc phagemid) and detected with anti-HA HRP
B2: L2C9 anti-human Trop2 scFv (scFv, V domains shown)
VH: EVQLLESGGGVVQPGMSLRVSCAASGFTFSNYGMHWVRQAPGKGLEWVGIIWSDGTYTYYGDSVQGRFTISRDNSENTLHLQMNSLRAEDTAVYYCAKSLTPLGGSFRIGDWGQGTLVTVSS
VL: QSVLTQPPSVSGAPGQRVTISCTGSSSNIGAGYDVHWYQQLPGTAPKLLIYDNTNRPSGVPDRFSGSKSGTSASLAITGLQADDEGDYYCQSYDSRLNALVFGGGTKLTVL
notes: as for B1
B3: L3G5 anti-human Trop2 scFv (scFv, V domains shown)
VH: QLQLQESGPGLLKPSETLSLICTVSGGSISSHYWSWIRQTPGKGLEWIGWIHSSGITNYNPSLMGRVTMSVDTSKNQFPLKVNSVTAADTAVYYCARGLRLTDDAFDIWGQGTMVTVSS
VL: QSALTQPASVSGSPGQSITISCTGTSSDVGGYNYVSWYQQHPGKAPKLMIHDVSNRPSGVSNRFFGSKSGNTASLTISGLQAEDEADYYCSSYTSSNTLAFGGGTKLTVL
notes: as for B1
B4: K2F5 anti-human Trop2 scFv (scFv, V domains shown)
VH: QVQLVQSGAEVKKPGESLTISCKSSGDNFSTNWIGWVRQMPGKGLEWMGIIYPGDSDSRYSPSFEGQVTISADKSISTAYLQWSSLKASDTAMYYCARYQGSTTPFDYWGQGTTVTVSS
VL: not shown
notes: as for B1

Biological target: T1, 重组人Trop2-avi-his抗原蛋白 (recombinant human Trop2 extracellular domain with C-terminal avi-tag and 6×his-tag) (human, UniProt P09758 27-274)
T1 construct: The protein was coated unbiotinylated on the ELISA plate; A form biotinylated at the avi-tag was used for panning and for CAR staining; also called 重组人Trop2蛋白; Trop2蛋白
T1 sequence: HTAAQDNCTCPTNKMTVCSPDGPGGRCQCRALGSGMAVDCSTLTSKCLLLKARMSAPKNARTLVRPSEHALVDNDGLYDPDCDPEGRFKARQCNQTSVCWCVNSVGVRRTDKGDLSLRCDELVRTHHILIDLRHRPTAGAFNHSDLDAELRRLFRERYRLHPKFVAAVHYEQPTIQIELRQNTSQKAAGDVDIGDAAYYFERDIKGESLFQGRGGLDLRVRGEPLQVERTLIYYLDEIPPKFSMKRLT
Experiment: ELISA: recombinant human Trop2 coated at 100 ng/well, scFv periplasmic extract, anti-HA HRP detection, OD450

Row | Binder | binding result
1 | B1 | binds
2 | B2 | binds
3 | B3 | binds
4 | B4 | binds
